Source: publication PMC4416226 (The FEBS journal, 2014)

Molecular target: T1, His-MyoD (1-320 aa) (UniProt P15172 1-320)
T1 sequence (looked up): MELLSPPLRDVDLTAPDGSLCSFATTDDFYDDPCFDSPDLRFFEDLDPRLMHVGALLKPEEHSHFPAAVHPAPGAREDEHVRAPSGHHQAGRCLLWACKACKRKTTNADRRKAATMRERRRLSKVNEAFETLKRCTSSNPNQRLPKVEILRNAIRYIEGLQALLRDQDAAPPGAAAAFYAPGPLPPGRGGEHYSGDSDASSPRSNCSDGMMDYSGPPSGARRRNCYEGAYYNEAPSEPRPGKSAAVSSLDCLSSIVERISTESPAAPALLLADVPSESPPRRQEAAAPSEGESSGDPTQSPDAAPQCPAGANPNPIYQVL
Assay: far-Western, overlay or dot blot

B1: GST-MLP-a (1-194 aa) (natural protein, human, UniProt P50461-1 1-194, looked up)
chain: MPNWGGGAKCGACEKTVYHAEEIQCNGRSFHKTCFHCMACRKALDSTTVAAHESEIYCKVCYGRRYGPKGIGYGQGAGCLSTDTGEHLGLQFQQSPKPARSVTTSNPSKFTAKFGESEKCPRCGKSVYAAEKVMGGGKPWHKTCFRCAICGKSLESTNVTDKDGELYCKVCYAKNFGPTGIGFGGLTQQVEKKE
  binding result: binds
